The source of these data is the nanobody polyreactivity screen of Harvey et al. (2022).

The data set can be described thus: yeast display, Sf9 membrane polyspecificity reagent, FACS + sequencing; frameworks hold sequencing errors. The essentials: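 Galactose induction of a Saccharomyces cerevisiae BJ5465 synthetic nanobody display library ran 36–48 hours. The cells were then stained for 1 hour at 4 °C with 10% biotinylated, detergent-solubilized Sf9 membrane reagent, pulled down on streptavidin microbeads and FACS-sorted into low and high (top ~1%) gates on expression and reagent-binding fluorescence. Labels for polyreactivity follow the gate of origin.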
Regarding “QFQLVESGGGLVQAGGSLRLSCAASGSICVLYPMGWYRQAPGKERELVAAITSGASTNYADSVKGRFTISRDNAKNTVYLQMNSQKPEDTAVYYCNTGSRLDRVDSWGQGTQLTVSS”, the “polyreactivity (PSR sort gate)” value is reported as “low polyreactivity”.
The result for “QFQLVESGGGLVQAGGSLRLSCAASGSIFEPNAMGWYRQAPGKEREFVAAISGSGGSTYYADSVKGRFTISRDNAKNTVYLQMNSLIQEDTAVYYCATRGKRSYFRTFYYWGQGTQVTVSS” reads “high polyreactivity”; that for “QFQLVESGGGLVQAGGSLRLSCAASGSIFGPYAMGWYRQAPGKEREFVAAISRSGTRTNFADSVKGSFTISRDSAKNTVYLQMNSLKPEDTAVYYCATAAFIVGTSRTYDYWGQGTQVTVSS”, “high polyreactivity”.
As to “QFQLVESGGGLVQAGGSLRLSCAASGSIFGYYAMGWYRQAPGKESELVAAISASGGTTYYADSVKGRFTISRDYAKNTVYLQMNSLKPEDTAVYYCNKLYLKPGRYYYWGQGTQVTVSS”, the “polyreactivity (PSR sort gate)” value was “high polyreactivity”.
The result for “QFQLVESGGGLVQAGGSLRLSCAASGSIFPPYVMGCYRQAPGKERELVATIDSGGSTYYADSVKGRFTISRDNAKNPVYLQINSLKPEDTAVYYCAARQVSVSVHQYGYWGQGTQVTVST” reads “low polyreactivity”; that for “QFQLVESGGGLVQAGGSLRLSCAASGSIIPIYAMGWYRQAPGKERELVAAINRSGGSTYYADSVKGRFTISRDNAKNTVYLQMNSLKPEDTAVYYCNADYGYHNQLFWGYYGWSSDHWGQGTQVTVSS”, “low polyreactivity”.
The result for “QFQLVESGGGLVQAGGSLRLSCAASGSTFDINDMGWYRQAPGKERELVAAITTSGASTYYADSVKGRFTISRDNAKNTVYLQMNSLKPEETAVSYCAADCLSYVWYVWYDYWGQGTKVTVSS” reads “low polyreactivity”; that for “QFQLVESGGGLVQAGGSLRLSCAASGSTFEKNAMGWYRQAPGKERDLVDAISNGVSTYYADSVKGRFTISRDNAKNSVFLQMISLKPEDTAVYFCAADLFFGAETVYYDKFDYWGQGTKVTVSS”, “low polyreactivity”.
The result for “QFQLVESGGGLVQAGGSLRLSCAASGSTFGGNAMGWYRQAPGKERELVAAIDSGGGTNYADSVKGRFTISRDNAKNTVYLQMNSLKPEDSAVYYCNADWAVRSTQNSSSGHDYWGQGTQVTVSS” reads “low polyreactivity”.
With “QFQLVESGGGLVQAGGSLRLSCAASGSTFGYYAMGWYSQAPGKERELVAAITSTGRTKYADSVKGRFTISRDNAKNSVYLQMNSLKPEDTAVYYCAADIWGQGTQVTVSS”, the “polyreactivity (PSR sort gate)” value was “high polyreactivity”.
On to “QFQLVESGGGLVQAGGSLRLSCAASGSTFPHYTMGWYRQAPGKERELVAAIRRSAGSTYYADSVKGRFTISRDNAKNTVYLQMNSLKPEDTAVYYCNTRQRPPYLVKLNYWGQGTQVTVSS”, for which the “polyreactivity (PSR sort gate)” value is recorded as “high polyreactivity”.
Regarding “QFQLVESGGGLVQAGGSLRLSCAASGSTFRGYVMGWYRQAPGKERELVAAITFSSGSTYYADSVKGRFTISRDNAKNTVYLQMNSLKPEDTAVYYCAAVGPYYRDYYYWGQGTQVTVSS”, the “polyreactivity (PSR sort gate)” value is listed as “high polyreactivity”.
In the case of “QFQLVESGGGLVQAGGSLRLSCAASGSTFWVYAMGWYRQAPGKERDLVAAITFRTTSTYYADSVKGRFTISRDTAKNSVSLQLKSLIPDDNAVYFCAATEYYATEYDYWGQCTQVTVSS” it was “low polyreactivity”; in that of “QFQLVESGGGLVQAGGSLRLSCAASGSTFYPNSMGWYRQAPGKEMELVAAISSGGSTSYADSVKGRFTISRDNAKNTVYLQMNSLKPEDTAVYYCNASSPGAVPVYDYDYWGQGTQVTVSS”, “low polyreactivity”; in that of “QFQLVESGGGLVQAGGSLRLSCAASGYIFGRYAMGWYRQPPGKERELVAAISSTGDSTYYADSVKGRFTISRDYAKNTVYLQMNSQKPEDTAVYYCNAVVPRYSYGRYYYWGQGTQVTVSS”, “high polyreactivity”.
The result for “QFQLVESGGGLVQAGGSLRLSCAATGRTFYIYSMGWYRQAPGKERELVAAITSGGSTSYADSVKGRFTISRDNAKNTVYLQMNSLKPEDTAVYYCAADQYTYWFGYDYWGQGTQVTVSS” reads “low polyreactivity”.
Take “QFQLVESGGGLVQAGGSLRLSCAAYGFTFYAYTMGWYRQAPGKERELVAAIRTGSSTYYADSVKGRFTISRDNAKNTVYLQMNSMKPQDTAVYYCAAPRWRRPYRYDYWGQGTQVTVSS”: the “polyreactivity (PSR sort gate)” value is recorded as “high polyreactivity”.
In the case of “QFQLVESGGGLVQAGGSLRLSSAASGSTFYYNAMGWYRQAPGKERELVAVITSGVSTYYADSVKGRFTISRDNAKNTVYLQMNSLKPVDTAVYYCAADLYRPYEYQLDYWGHGTQVTVSS” it was “low polyreactivity”; in that of “QFQLVESGGGLVQAGGSLRLSSAPSGIIFPYYAMGWYRQAPGKERELVAAISRTGSTYYADSVKGRFTISRDNAKNTVYLQMNRLNPEVTAVYYCAARTYYSQGTSSVSLQQYGYWGEGTQVTVSS”, “low polyreactivity”; in that of “QFQLVESGGGLVQAGGSLRVSSAASGITLPYYAMGWYRQAPGKDRELVAGISSRGGSTYYADSVKGRFTISRDNAKNTVYLQMNSLKPEDTAVYYCAAKVASTRLGPAYGYWGQGTQVTVSS”, “high polyreactivity”.
Turning to “QFQLVESGGGLVQARGSLRLSCAASGRIFSWYAMGWYRQAPGKETELVAGLNRNGGSTYYPDSVKGRFTISRDNAKNTVYLQMNSQKPEDTAVYYCAKGQYYYTGDYDYWGQGTQVTVSS”, the “polyreactivity (PSR sort gate)” value is “high polyreactivity”.
The result for “QFQLVESGGGLVQARGSLRLSCAASGSTFSQYAMGWYRQAPGKERELVAAITTSDGTTNYADSVKGRFTISRDNAKNTVFLQMNILQPEDTAVYYCNNEYFYYSFGYWGQGTQVTVSS” reads “low polyreactivity”; that for “QFQLVESGGGVVQAGGSLRLSCAASGYTFYIYARGWYRQAPWKERELVAAISWTDGSTYYADSVKGRFTISRDNAKNTVYLQMNSLKPEDTAVYYCAKTSLYAGAKEYDYWGQGTQVTVSS”, “low polyreactivity”.
The result for “QFQLVESGGRLVQAGGSLRLSCAASGFTFNRYAMGSYRQAPGKGREFVAAITRRGGSTYYADSVKGRFTISRDNAKNTVYLQMNSLKPEDTAVYYCNVKPSARGSPLYDYWGQGTQVTVSS” reads “high polyreactivity”; that for “QFQLVESGRGLVQAGGSLRLSCASSGSTQKYAMGWYRQAPRKERELVAAIRRTGGSTYYADSVKGRFKISRDNAKNTVYLQMNSLKPEDTAVYYCAAYIWVAESYDWGQGTQVTVSS”, “low polyreactivity”.
In the case of “QFQLVESRGGLDQAVGSLRLSCAASGFIFAGYVMGLYRQAPGQERELVAGISNSGDNTHYADSVKGRFTISRDNAKNTDYLQMNSLKPEDTAVYYCAAVEQHLAGDDFYSYYYWGQGTQVTLSS” it was “low polyreactivity”; in that of “QFQLVETGGGLVQAGGSLRLSCAASGITFVRYAMGWYSQAPGKERELVAGISRGGSTNYADSVKGRFTISRDNAKNTVYLQMNSLKPEDTAVYYCNRANSFFDTHTLQFYYWGQGTQVTVSS”, “high polyreactivity”; in that of “QGHLVESGGGLVQAGGSRRLSCAASGRIFSPYALGWSRQGPGKERELVAAISSDDGITYYADSVKRRFTISRDNAKNTVYFQMNSLKPEDTAVYYCAADSGTRPAGDYWGQGTQVTVSS”, “low polyreactivity”.
As to “QGQHAESGGGLVQAGGSLRLTCAASGFTFVYYPMGWYRQATGKERELVAAISGRGGSTYYADSVKGRFTISRDNAKNTVFLQMNSMKPEDTAVYYCAADAYESGNWEANGYWGQGTQVSVSS”, the “polyreactivity (PSR sort gate)” value is given as “low polyreactivity”.
Regarding “QGQHVESGGGLVQAGGSLPLSCAASGFIFNLYAMGWSRQAPGKERELVAAISSGGGTSYADSVKGRFTISRDNAKNTVYLQMNTLKPEDTADYYCAARAWYRVSAYDYWGQGTQVTVSS”, the “polyreactivity (PSR sort gate)” value is reported as “high polyreactivity”.
The result for “QGQHVESGGGLVQAGGSLRLSCAASGNILASNGMGWYRQAPGKERELVAAITFSGDTTYYADSVKGRFTISRDNAKNTVYLQMNSLKPEDTAVYYCNDGSFIVNGGYDGDYWGQGTQVTLSS” reads “low polyreactivity”; that for “QGQLEESGGGLVQAGGSLRLSCAASGFTFYDNAMGWYRQAPGKERELVAAISWSGGSTYADSVKGRFTISRDNAKNTVYLLMNSLKPEDTAVYYCNADAWLASGYRYDYWGQGTQVTVSA”, “low polyreactivity”.
In the case of “QGQLGESGGGLVQAGGSLRLSCAATGFTSYVYAMGWYRQAPGKERELVAAISLRTASTYYADSVKGRFTISRDNAKNTVYLQMTSLKPEDTAVYDCALGRETYRYAYRLNYWGQGTQVTLSS” it was “high polyreactivity”; in that of “QGQLVESCGCLVQAGGSLRLSCAASGSTFVVYDMGWYRQAPGKERELVAAITWSGGSTYYADSVKGRFTISRDNAKNTVYLQMNSLKPEDTAVYYCNKVTWHQGHDYWGQGTQVTVSS”, “low polyreactivity”; in that of “QGQLVESGGCLVQAGGSLRLSCAASGSIFSENTMGWYRQAPGKKRELVADITSGGSTNYADSVKGRFTSSRDNAKYTVYLQMNSLIPEDTEVYYCAADYNGEYDYWGQGTLVTVSS”, “low polyreactivity”.
In the case of “QGQLVESGGGFVQEGGSLRLSCAASRSIFRLYAMGWYRQAPGKEREFVARLRWRGGSTNYADSVKGRFTISRDNAKKTVYLQMNSLKPEDTAVYYCNARGRSGGGRYDYWGQGTQVTVSS”, the “polyreactivity (PSR sort gate)” value is “high polyreactivity”.
Take “QGQLVESGGGLDQAGGSLRLSCAASGSIFHGNAMGWYRQAPGKERELVAVISDGGYTDYADSVKGRFTISRDNAKNTVYLQMNSLKPEDTAGYYCNADYDTQYFYRNPIYYLSGYDYRGQGTQVTVSS”: the “polyreactivity (PSR sort gate)” value was “low polyreactivity”.
In the case of “QGQLVESGGGLFQAGASLRLSCAASGITFYDNAMGLYRQAPGKERELVAGISYDGDSTYADSVKGRFTISRDNAKNTVYLQMNSLKPEDTAVYYCAALCPYDWLWAGDYWGQGTQVTVSS” it was “low polyreactivity”; in that of “QGQLVESGGGLFQAGGSLSLSCASSGRTITHNVMGWYRQAPGKEMELVAGISSTGGSTYYADSVKGRFTISRDNSKNTVYLQMNSLKPEDTAVYYCAKEYYDGYFPSFDYEYWGQGTQVTVSS”, “low polyreactivity”; in that of “QGQLVESGGGLVQAGCSLRLSCAASGSTFRRYAMGWDRQAPGKERELVATINWSGGRTYYADSVKGRFTISRDNAKKTGSLQMNRLKPVDTAVYYCAKADYYGYHYYYWGQGTQVTVSS”, “high polyreactivity”.
On to “QGQLVESGGGLVQAGGRLRLSCAASGFTFRHNAMGWYRQAPGKETELVAAISWSDGSTYADSVKGRFTISRDNAKNTVYLQMNSLKPEDTAVYYCNADYPSYRYFTGRDYWGQGTQVTVSS”, for which the “polyreactivity (PSR sort gate)” value is on record as “low polyreactivity”.
